# Measured values: patent US10682419B2, “Prodrugs of peptide epoxy ketone protease inhibitors” (Onyx Therapeutics, Inc., priority 2012, dated 2020)
# What was measured:
# [1] = Pharmacokinetic comparison of Compound A and prodrug in mouse; type: in vivo
# [2] = Conversion of PEG conjugates to drug in human plasma; type: in vitro ADME
smiles,measurement,setting,value
"CC(C)C[C@H](NC(=O)[C@H](CCc1ccccc1)NC(=O)CN1CCOCC1)C(=O)N[C@@H](Cc1ccccc1)C(=O)N[C@@H](CC(C)C)C(=O)[C@@]1(C)CO1 [Cmpd A, (S)-4-methyl-N—((S)-1-(((S)-4-methyl-1-((R)-2-methyloxiran-2-yl)-1-oxopentan-2-yl)amino)-1-oxo-3-phenylpropan-2-yl)-2-((S)-2-(2-morpholinoacetamido)-4-phenylbutanamido)pentanamide]",[Cmpd A] (μM) at 1 hr,[1]; time 1 hr,0.008 µM
same,[Cmpd A] (μM) at 4 hr,"[1]; time 4 hr, BLOQ = below level of quantitation",BLOQ
same,[Cmpd A] (μM) at 6 hr,"[1]; time 6 hr, BLOQ = below level of quantitation",BLOQ
same,[Cmpd A] (μM) at 24 hr,"[1]; time 24 hr, BLOQ = below level of quantitation",BLOQ
COCCOCCOCCOCCOCCOCCOCCOCCn1cc(CNC(=O)c2cccc(S(=O)(=O)OCC(C)(O)C(=O)[C@H](CC(C)C)NC(=O)[C@H](Cc3ccccc3)NC(=O)[C@H](CC(C)C)NC(=O)[C@H](CCc3ccccc3)NC(=O)CN3CCOCC3)c2)nn1 (some centres unmarked),Conversion to drug in Human Plasma (%) 2 min,[2],7%
same,Conversion to drug in Human Plasma (%) 30 min,[2],63%
same,Conversion to drug in Human Plasma (%) 1 hr,[2],100%
same,Conversion to drug in Human Plasma (%) 2 hr,[2],95%
same,Conversion to drug in Human Plasma (%) 4 hr,[2],80%
COCCOCCOCCOCCOCCOCCOCCOCCn1cc(COCCCS(=O)(=O)OCC(C)(O)C(=O)[C@H](CC(C)C)NC(=O)[C@H](Cc2ccccc2)NC(=O)[C@H](CC(C)C)NC(=O)[C@H](CCc2ccccc2)NC(=O)CN2CCOCC2)nn1 (some centres unmarked),Conversion to drug in Human Plasma (%) 2 min,[2],2%
same,Conversion to drug in Human Plasma (%) 30 min,[2],18%
same,Conversion to drug in Human Plasma (%) 1 hr,[2],58%
same,Conversion to drug in Human Plasma (%) 2 hr,[2],90%
same,Conversion to drug in Human Plasma (%) 4 hr,[2],80%
